Laboratory results from publication doi:10.1101/829945.

Biological target: fibrin fragment E
Assay: SPR

- Kd: 2 to 20 nM
Substance: soluble recombinant human αVβ3-integrin (from UniProt P06756 31-1048; P05106 27-718) (receptor)
